# Measured values taken from publication PMC11411725.
# Molecular target: vCCI (viral CC chemokine inhibitor), wild type, from rabbitpox (rabbitpox), O10647
# Test: SEC-MALS
# Details: remark: other sources report otherwise
binder,measurement,value
"CCL17 (CC chemokine ligand 17, TARC), wild type, Q92583 24-94 (ligand) ARGTNVGRECCLEYFKGAIPLRKLKTWYQTSEDCSRDAIVFVTVQGRAICSDPNNKRVKNAVKYLQSLERS",stoichiometry N,1
